Results: US20250011738A1, “HEAT TOLERANT ALKALINE PHOSPHATASE” (BiomEdit, LLC, priority 2021, published 2025)

Columns and labels:
Type in all cases: biochemical, Paenibacillus lentus
[1] = substrate: Nc1ncnc2c1ncn2[C@@H]1O[C@H](COP(=O)(O)OP(=O)(O)OP(=O)(O)O)[C@@H](O)[C@H]1O; assay: Phosphate assay (Malachite green) with UDP, ATP and dAMP, AP1 ("Native")
Description: (§1) FIG. 9 depicts (A)Vmax (IU/mg) and (B) KM (μM) activity of AP1 (designated “Native”) and APHT (designated “HT”) on UDP, ATP and dAMP. Assays were performed at 40° C. with p substrate concentration 0-5 mM in Tris buffer pH 8. The enzyme concentration was 2 μg/mL.
(§2) FIG. 10 depicts (A)Vmax (IU/mg) and (B) KM (μM) activity of AP1 (designated “Native”) and APHT (designated “HT”) with UDP, ATP and dAMP. Assays were performed at 50° C. with p substrate concentration 0-5 mM in DEA buffer pH 10. The enzyme concentration was 2 μg/mL.
(§3) Enzymes, including lysozyme and alkaline phosphatase, are recognized as disruptors of bacterial debris and inflammation. These enzymes reduce inflammation, including by lysing the peptidoglycans and LPS of bacteria, thus deactivating them and thereby bypassing the inflammatory response. An alkaline phosphatase was initially identified and modified from Paenibacillus lentus bacteria and expressed for application and use as a farm animal feed additive. This modified alkaline phosphatase is characterized by having a serine (S) replacement for an aspartic acid (D) in the native bacterial alkaline phosphatase protein sequence and is designated herein as AP1. […] The AP1 alkaline phosphate is described including in U.S. Pat. No. 9,326,535 issued May 3, 2016. The sequence of AP1 is as follows (the serine is in bold and underlined) (SEQ ID NO:4):
(§4) 5. Phosphate Assay with Biological Substrates UDP, ATP, and dAMP (Native and HT)
(§5) Phosphatase activity with UDP, ATP and dAMP was assessed by measuring the release of […] with the Malachite green reagent (Sigma) at 40° C. and 50° C. Assay consisted of nucleotide phosphate in the concentration range 0-5 mM, 2 μg/mL AP in a final volume of 100 μL. The reaction was initiated in a 96-well microplate with the addition of enzyme and incubated for 5 min. After this time, 10 μL of reaction were mixed with 90 μL of water 25 μL of Malachite green solution. The microplate was shaken for 20 min at 25° C. and absorption was recorded at 620 nm. As standard pyrophosphate solution in water was used in the concentration range of 0-40 μM. Each experiment was done by triplicated at least.

[2] = substrate: O=c1ccn([C@@H]2O[C@H](COP(=O)(O)OP(=O)(O)O)[C@@H](O)[C@H]2O)c(=O)[nH]1; assay: as above
Description: as §1, §2, §3, §4, §5

[3] = substrate: Nc1ncnc2c1ncn2[C@H]1C[C@H](O)[C@@H](COP(=O)(O)O)O1; assay: as above
Description: as §1, §2, §3, §4, §5

[4] = substrate: Nc1ncnc2c1ncn2[C@@H]1O[C@H](COP(=O)(O)OP(=O)(O)OP(=O)(O)O)[C@@H](O)[C@H]1O; assay: Phosphate assay (Malachite green) with UDP, ATP and dAMP, APHT ("HT")
Description: as §1, §2
(§6) To further improve the thermal stability, a set of synthetic alkaline phosphatase genes where each amino acid was mutated to other possibilities one at a time was constructed and evaluated. Numerous single amino acids changes improving heat tolerance were combined and incorporated into a mutated alkaline phosphatase version yielding the alkaline phosphatase heat tolerant molecule designated APHT. […] (FIG. 4), and has a total of 16 amino acid changes from the original AP1 sequence (see FIG. 5A and B). In FIG. 5A, the AP1 with a serine mutation is designated as “AP Native” and is depicted in sequence with a leader sequence ASGFYVSGT (SEQ ID NO:13). The AP1 with leader sequence ASGFYVSGT is provided in SEQ ID NO:14). The APHT polypeptide with leader sequence ASGFYVSGT is provided in SEQ ID NO:15). In FIG. 5B, the AP1 with a serine mutation and without any leader sequence or leader peptide amino acids (SEQ ID NO:4) is aligned and compared with the APHT without any leader sequence or leader peptide amino acids (SEQ ID NO:1). The 16 amino acid changes in APHT are evident. The APHT amino acid sequence (excluding and without any leader sequence and starting with amino acids ESSN) is 97% identical to the sequence of AP1 (excluding and without any leader sequence and starting with amino acids ESSN).
(§7) The APHT sequence (SEQ ID NO: 1) is provided below with the amino acid mutations versus the AP1 sequence underlined and in bold.
as §4, §5

[5] = substrate: O=c1ccn([C@@H]2O[C@H](COP(=O)(O)OP(=O)(O)O)[C@@H](O)[C@H]2O)c(=O)[nH]1; assay: as above
Description: as §1, §2, §6, §7, §4, §5

[6] = substrate: Nc1ncnc2c1ncn2[C@H]1C[C@H](O)[C@@H](COP(=O)(O)O)O1; assay: as above
Description: as §1, §2, §6, §7, §4, §5

[7] = substrate: Nc1ncnc2c1ncn2[C@@H]1O[C@H](COP(=O)(O)OP(=O)(O)OP(=O)(O)O)[C@@H](O)[C@H]1O; assay: Dephosphorylation of substrates UDP, ATP and dAMP (Example 4, Table 11); details: other: Table 11; conditions not given
Description: (§8) The inorganic phosphorous release (μM) from each of these sources by the heat tolerant HTAP was determined and is shown in FIG. 12. […] The inorganic phosphorous release (μM) was also assessed from the metabolically relevant compounds phosphocholine, phosphocreatine and phytic acid and compared with native AP. The heat tolerant HTAP was comparably active vs native AP in Pi release from each of compounds phosphocholine, phosphocreatine and phytic acid (data not shown).
(§9) Dephosphorylation of substrates UDP, ATP and dAMP was also assessed and determined.

[8] = substrate: O=c1ccn([C@@H]2O[C@H](COP(=O)(O)OP(=O)(O)O)[C@@H](O)[C@H]2O)c(=O)[nH]1; assay: as above; details: other: Table 11; conditions not given
Description: as §8, §9

[9] = substrate: Nc1ncnc2c1ncn2[C@H]1C[C@H](O)[C@@H](COP(=O)(O)O)O1; assay: as above; details: other: Table 11; conditions not given
Description: as §8, §9

[10] = other: 40° C., Tris buffer pH 8, enzyme 2 μg/mL, pH 8.0, 40.0 °C
[11] = other: 50° C., DEA buffer pH 10, enzyme 2 μg/mL, pH 10.0, 50.0 °C

B1: Paenibacillus lentus alkaline phosphatase AP1 (designated "Native"), serine (S) replacement for an aspartic acid (D), SEQ ID NO: 4 (Paenibacillus lentus; D102S) (protein)
chain: ESSNGQSKNLIVLIGDGMGPAQVSAARYFQQHKNNINSLNLDPYYVGQATTYADRGEDGGHIVSGIVTSSASAGTAFATGNKTYNAAISVSNEDVSRPFASVLEAAELSGKSTGLVTTARITHATPAVYASHVRSRDNENAIAFQYLDSGIDVLLGGGESFFVTKEEKGKRNDKNLLPEFEAKGYKVVKTGQSLKSLSAKDAKVLGLFGGSHIAYVPDRSDETPSLAEMTSKALEILSTNENGFAIMIEGGRIDHAGHANDFPTMVQEALDFDEAFKVAIDFAKKDGNTSVVVTADHETGGLSLSRDNIYELNVDLWNKQKNSSESLVSALNEAKTIADVKKIVSDNTWITDLTNEEAQYILDGDGSSYKREGGYNAVISKRLLVGWSGHGHSAVDVGVWAYGPIADKVKGQIDNTRIATASAEVLGVDLKKATADLQSKYLYPKFKINRNKEVLFPAKPLAEALGGKYQAANGTATISGMSGTITVDLNAKKAKLSGNSSSITIDVDNDVLYLPLTAFSQITGQTLKWDALSERIMLK
[1]; [10]
  Km: 110 µM
  Vmax: 336 IU/mg
[1]; [11]
  Km: 210 µM
  Vmax: 578 IU/mg
[2]; [10]
  Km: 74 µM
  Vmax: 447 IU/mg
[2]; [11]
  Km: 83 µM
  Vmax: 608 IU/mg
[3]; [10]
  Km: 113 µM
  Vmax: 356 IU/mg
[3]; [11]
  Km: 199 µM
  Vmax: 730 IU/mg

B2: Paenibacillus lentus alkaline phosphatase AP1 heat tolerant mutant APHT (designated "HT"), 16 amino acid changes from AP1, SEQ ID NO: 1 (Paenibacillus lentus; … (protein)
chain: ESSNGQSKNLIVLIGDGMGPAQVSAARYFQQHINNINSLNLDPYYVGQATTYADRGEDGGHIVSGIITSSAAAGTAIATGNKTNNAAISVSNEDVSRPFASVHEAAELSGKSTGLVTTARITHATPAVYGSHVRNRDNENAIAFQYLDSGIDVLLGGGESFFVTNEEKGKRNDKNLLPEFEAKGYKVVKNGQSLKSLSAKDAKVLGLFGGSHIPYVPDRSDETPSLAEMTSKALEILSTNENGFAIMIEGGRIDHAAHANDFPTMVQEMLAFDEAFKVAIDFAKKDGNTSVVVTADHETGGLSLGRDNIYELNVDLWNKQKNSSESLVSALNEAKTIADVKKIVSDNTWITDLTNEEAQYILDGDGSSYKREGGYNAVISKRLLVGWSGHGHSAVDVGVWAYGPIADKVKGQIDNTRIATASAEVLGVDLKKATADLQSKYLYPKFKINRNKEVLFPAKPLAEALGGKYQAANGTATISGMSGTITVDLNAKKAKLSGNSSEITIDVDNDVLYLPLTAFSQITGQTLKWDALSERIMLK
[4]; [10]
  Km: 97 µM
  Vmax: 358 IU/mg
[4]; [11]
  Km: 283 µM
  Vmax: 380 IU/mg
[5]; [10]
  Km: 93 µM
  Vmax: 631 IU/mg
[5]; [11]
  Km: 121 µM
  Vmax: 521 IU/mg
[6]; [10]
  Km: 165 µM
  Vmax: 262 IU/mg
[6]; [11]
  Km: 623 µM
  Vmax: 472 IU/mg

B3: Paenibacillus lentus alkaline phosphatase AP1 heat tolerant mutant APHT (HTAP), SEQ ID NO: 1 (Paenibacillus lentus; … (protein)
chain: B2 chain
[7]
  Km: 399 ± 68 µM
  kcat: 0.1 ± 0.00333 s⁻¹
[8]
  Km: 166 ± 14 µM
  kcat: 0.125 ± 0.00167 s⁻¹
[9]
  Km: 242 ± 27 µM
  kcat: 0.132 s⁻¹
